# Reference: patent US20160251408
# Columns and labels:
# [1] = system: VWF-055 (VWF D′D3-Fc fusion construct; 34 aa VWF linker comprising an a2 region from FVIII)
# [2] = system: VWF-034 (VWF D′D3-288XTEN-LVPR-Fc fusion construct)
# Sequence of VWF-034 (VWF D′D3-288XTEN-LVPR-Fc fusion construct) (chain, as listed by the source): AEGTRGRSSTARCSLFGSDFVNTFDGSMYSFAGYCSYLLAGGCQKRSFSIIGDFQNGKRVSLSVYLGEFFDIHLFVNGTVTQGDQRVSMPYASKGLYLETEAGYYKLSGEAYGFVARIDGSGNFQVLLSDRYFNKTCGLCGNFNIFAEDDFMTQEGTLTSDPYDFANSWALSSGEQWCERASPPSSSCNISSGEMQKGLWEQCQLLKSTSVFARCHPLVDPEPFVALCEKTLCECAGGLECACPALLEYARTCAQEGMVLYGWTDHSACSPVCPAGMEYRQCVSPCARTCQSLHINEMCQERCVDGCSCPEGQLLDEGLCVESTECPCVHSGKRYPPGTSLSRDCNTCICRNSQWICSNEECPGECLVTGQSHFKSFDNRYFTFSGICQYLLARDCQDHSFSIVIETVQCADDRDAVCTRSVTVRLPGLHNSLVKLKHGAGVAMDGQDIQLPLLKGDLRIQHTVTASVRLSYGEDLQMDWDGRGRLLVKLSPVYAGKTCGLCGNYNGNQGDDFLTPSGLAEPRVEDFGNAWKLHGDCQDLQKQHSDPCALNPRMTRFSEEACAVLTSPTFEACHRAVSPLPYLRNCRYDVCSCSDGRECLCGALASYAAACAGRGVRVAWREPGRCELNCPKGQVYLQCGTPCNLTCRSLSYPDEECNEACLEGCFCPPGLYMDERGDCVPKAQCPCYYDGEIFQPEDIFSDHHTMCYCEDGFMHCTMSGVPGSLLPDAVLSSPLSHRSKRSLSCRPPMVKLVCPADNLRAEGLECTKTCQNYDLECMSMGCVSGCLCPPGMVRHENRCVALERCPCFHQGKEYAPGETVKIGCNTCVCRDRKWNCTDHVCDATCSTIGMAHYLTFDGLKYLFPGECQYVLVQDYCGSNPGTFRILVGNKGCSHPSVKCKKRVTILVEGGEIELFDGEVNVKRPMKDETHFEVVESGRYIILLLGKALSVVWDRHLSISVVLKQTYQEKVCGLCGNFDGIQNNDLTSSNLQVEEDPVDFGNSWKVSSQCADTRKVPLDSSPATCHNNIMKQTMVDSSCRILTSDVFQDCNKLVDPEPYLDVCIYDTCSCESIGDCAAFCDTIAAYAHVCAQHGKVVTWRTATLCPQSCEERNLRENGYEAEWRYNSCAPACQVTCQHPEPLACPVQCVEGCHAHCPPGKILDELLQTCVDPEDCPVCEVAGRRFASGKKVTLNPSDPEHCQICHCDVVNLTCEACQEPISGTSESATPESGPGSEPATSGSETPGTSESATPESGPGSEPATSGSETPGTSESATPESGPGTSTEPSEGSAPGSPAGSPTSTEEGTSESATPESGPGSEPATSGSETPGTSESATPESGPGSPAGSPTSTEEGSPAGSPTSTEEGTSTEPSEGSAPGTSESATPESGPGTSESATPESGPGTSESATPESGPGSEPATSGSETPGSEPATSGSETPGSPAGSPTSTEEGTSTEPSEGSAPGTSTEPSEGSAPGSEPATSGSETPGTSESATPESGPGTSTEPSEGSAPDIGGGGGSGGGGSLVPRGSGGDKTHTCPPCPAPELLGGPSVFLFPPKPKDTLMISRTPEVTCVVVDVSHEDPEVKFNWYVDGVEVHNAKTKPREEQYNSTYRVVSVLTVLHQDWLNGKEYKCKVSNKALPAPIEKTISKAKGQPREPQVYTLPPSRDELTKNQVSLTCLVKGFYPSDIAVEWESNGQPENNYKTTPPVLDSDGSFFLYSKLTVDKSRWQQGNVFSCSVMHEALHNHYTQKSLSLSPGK
# Sequence of VWF-055 (VWF D′D3-Fc fusion construct; 34 aa VWF linker comprising an a2 region from FVIII) (chain, as listed by the source): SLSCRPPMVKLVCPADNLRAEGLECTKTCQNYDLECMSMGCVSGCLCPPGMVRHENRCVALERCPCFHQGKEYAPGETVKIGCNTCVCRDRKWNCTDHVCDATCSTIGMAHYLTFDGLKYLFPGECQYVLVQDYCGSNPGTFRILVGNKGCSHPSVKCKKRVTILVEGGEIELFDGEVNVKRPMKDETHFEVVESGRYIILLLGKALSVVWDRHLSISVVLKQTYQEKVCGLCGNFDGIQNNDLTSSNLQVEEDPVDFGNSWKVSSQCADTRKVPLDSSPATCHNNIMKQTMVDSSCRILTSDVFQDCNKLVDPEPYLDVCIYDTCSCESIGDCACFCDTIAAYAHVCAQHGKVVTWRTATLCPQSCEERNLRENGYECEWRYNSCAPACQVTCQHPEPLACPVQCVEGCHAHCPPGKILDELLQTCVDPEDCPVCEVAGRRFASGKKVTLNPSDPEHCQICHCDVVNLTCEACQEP
substance,measurement,setting,value
human alpha-thrombin,thrombin cleavage relative to VWF-039 (Biacore),[1],displayed similar thrombin cleavage as VWF-039 construct
same,thrombin cleavage rate relative to VWF-031 (Biacore),[2],displayed slower cleavage compared to VWF-031
